From patent US20150183884A1 (NATIONAL HEALTH RESEARCH INSTITUTES, published 2015)

Tests used:
BSA = target: T1, BSA (bovine, UniProt P02769); assay: ELISA, BSA as background
T1 construct: also called BSA background
Text: This reaction solution was subjected to 2% agarose gel electrophoresis to analyze the reaction products. Reaction products with the correct molecular weights were ligated into a pCR 2.1-TOPO vector (manufactured by Invitrogen) for subcloning in accordance with the attached instruction manual. M13 forward (5′-[…]-3′(SEQ ID NO: 11) and M13 reverse (5′-CAG GAAACA GCT ATG AC-3′ (SEQ ID NO: 12)) primers were then used to determine the nucleotide sequence. Every mutation clone with the correct sequences was digested with restriction enzymes BamHI and XhoI, and the digestion products were subjected to 2% agarose gel electrophoresis. The insertion fragment of each mutant was cut from the agarose gel and purified with a Gene Clean Kit in accordance with the attached instruction manual provided by the manufacturer (BIO101). The BamHI and XhoI DNA fragment of each mutant was ligated to the BamHI and XhoI sites of an E. coli expression vector pTRC His A (Invitrogen). The resulting plasmid was transformed into E. coli BL21 Rosseta. The ENO1 mutation protein was expressed in E. coli by IPTG induction and purified by Ni-agarose in accordance with the attached instruction manual provided by the manufacturer (Qiagen) after the bacteria pellet was sonicated. The purity of each mutant was analyzed by 12% SDS PAGE. […] The binding affinity was determined by the readings of OD 405. […]

[1] = target: ENO1 deletion mutant Δ1-189 (human) (UniProt P06733); assay: ELISA on coated mutant protein, 10 microgram EN10 mAb
[2] = target: ENO1 deletion mutant Δ1-297 (human) (UniProt P06733); assay: as above
[3] = target: ENO1 deletion Δ297-434 mutant (human) (UniProt P06733); assay: ELISA on coated ENO1 protein or mutant, 10 microgram EN10 mAb
Sequence of ENO1 deletion Δ297-434 mutant (human) (P06733 1-296, stated change not applied): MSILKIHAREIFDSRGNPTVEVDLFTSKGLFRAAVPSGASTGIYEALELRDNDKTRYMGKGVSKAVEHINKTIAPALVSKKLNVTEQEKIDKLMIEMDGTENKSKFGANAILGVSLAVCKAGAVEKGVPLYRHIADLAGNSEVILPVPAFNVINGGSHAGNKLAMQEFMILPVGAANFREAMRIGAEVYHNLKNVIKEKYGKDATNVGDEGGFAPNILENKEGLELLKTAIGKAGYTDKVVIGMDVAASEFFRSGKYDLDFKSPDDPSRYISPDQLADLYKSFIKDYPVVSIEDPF

T1 sequence (P02769 25-607 limits assumed): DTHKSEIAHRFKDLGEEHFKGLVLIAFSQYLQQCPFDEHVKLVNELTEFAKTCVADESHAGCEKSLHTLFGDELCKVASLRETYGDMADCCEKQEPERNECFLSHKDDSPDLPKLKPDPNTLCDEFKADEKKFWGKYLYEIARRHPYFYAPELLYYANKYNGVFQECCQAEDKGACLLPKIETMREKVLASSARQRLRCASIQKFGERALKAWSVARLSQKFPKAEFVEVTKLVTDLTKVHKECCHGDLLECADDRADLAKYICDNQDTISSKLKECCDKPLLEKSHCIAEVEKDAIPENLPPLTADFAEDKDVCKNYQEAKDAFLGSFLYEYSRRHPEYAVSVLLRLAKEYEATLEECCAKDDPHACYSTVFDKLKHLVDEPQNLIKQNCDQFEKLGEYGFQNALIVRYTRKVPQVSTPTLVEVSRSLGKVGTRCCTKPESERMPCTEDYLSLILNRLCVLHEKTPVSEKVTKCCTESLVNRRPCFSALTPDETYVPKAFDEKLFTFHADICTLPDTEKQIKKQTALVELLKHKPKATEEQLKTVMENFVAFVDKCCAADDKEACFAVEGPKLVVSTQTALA

B1: EN10 mAb (antibody, V domains shown)
VH: EVQLQQSGPELVKPGASVKMSCKASGYTFTSCVMNWVKQKPGQGLEWIGYINPYNDGTKYNEKFKGKATLTSDKSSSTAYMELSSLTSEDSAVYYCAREGFYYGNFDNWGQGTTLTVSS
VL: DIQMTQSPASLSASVGETVTITCRASENIYSYLTWYQQKQGKSPQLLVYNAKTLPEGVPSRFSGSGSGTQFSLKINSLQPEDFGSYYCQHHYGTPYTFGGGTKLEITR
notes: also called clone 10; anti-human ENO1 antibody clones 10
**Q.** Does B1 bind (BSA)?
**A.** no binding (tested: 10 microgram EN10 mAb (amount))

**Q.** What about the OD405 [1] of the same binder?
**A.** 1.43 OD405

**Q.** What about the percent of the OD405 of wild type ENO1 [1] of the same binder?
**A.** 42%

**Q.** And the OD405 [2]?
**A.** 1.56 OD405

**Q.** What about the percent of the OD405 of wild type ENO1 [2] of the same binder?
**A.** 39%

**Q.** And the OD450 [3]?
**A.** 0.47
